Measured values taken from the nanobody polyreactivity screen of Harvey et al. (2022).

Test: yeast display, Sf9 membrane polyspecificity reagent, FACS + sequencing; frameworks hold sequencing errors
Procedure, shortened: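 Galactose induction of a Saccharomyces cerevisiae BJ5465 synthetic nanobody display library ran 36–48 hours. The cells were then stained for 1 hour at 4 °C with 10% biotinylated, detergent-solubilized Sf9 membrane reagent, pulled down on streptavidin microbeads and FACS-sorted into low and high (top ~1%) gates on expression and reagent-binding fluorescence. Labels for polyreactivity follow the gate of origin.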
For “QVQLVESGGGLVQAGGSLRLSCAASGIIFYRYVMGWYRQAHGKERELVAAINNDGASTHYADSVKGRFTISRDNAKNTVYLQMNSLKPEDTAVYYCATRDSLYYRYWSNNYWGQGTQVTVSS”, the “polyreactivity (PSR sort gate)” value was “high polyreactivity”. For “QVQLVESGGGLVQAGGSLRLSCAASGIIFYTYAMGWYRQAPGKEREFVAGIRWSGSSTYYADSVKGRFTISRDNAKNTVYLQMNCLNPEDTAVYYCATGQPYGPLFSMGYGYWGQVTQVTVSS”, the “polyreactivity (PSR sort gate)” value was “high polyreactivity”. For “QVQLVESGGGLVQAGGSLRLSCAASGIIFYWNAMGWYRQAPGKERELVAGITRGGSTYYADSVKGRFTISRDNATNTVYLLMNSLKPEDTAVYYCAKRQASRRVSYSRYDYWGQGTQVTVSS”, the “polyreactivity (PSR sort gate)” value was “high polyreactivity”. For “QVQLVESGGGLVQAGGSLRLSCAASGIIFYWYAMGWYRQAPGKERELVAGIDSDGSTNYADSVKGRFTISRDNAKNTVYLQMNSLKPEDTAVYYCAAVQGYRFYESYYWGQGTQVTVSS”, the “polyreactivity (PSR sort gate)” value was “low polyreactivity”. With “QVQLVESGGGLVQAGGSLRLSCAASGIIFYYNAMGWYRQAPGKERELVAAINDSGNTYYADSVKGRFTISRDNAKNTVYFQMNSLKPEDTAVYYCAADVWKYWGYDYWGQGTQVTVSS” the “polyreactivity (PSR sort gate)” value was “low polyreactivity”. With “QVQLVESGGGLVQAGGSLRLSCAASGIIFYYYAMGSDRQAPGKERELVAAITSSGVRTYYADSVKGRFTISRDNAKNTVYLQMNSLKPEDTAVYYCAASSVLYSRSYDYWGQGTQVTVSS” the “polyreactivity (PSR sort gate)” value was “high polyreactivity”. For “QVQLVESGGGLVQAGGSLRLSCAASGIIFYYYAMGWYRQAPGTERELVARISLSGGSTYYADSVKGRFTISRDNAKNTVYLQMNSLKPEDTAVYYCATRSWYKRQTYDYWGQGTQVTVSS”, the “polyreactivity (PSR sort gate)” value was “high polyreactivity”. With “QVQLVESGGGLVQAGGSLRLSCAASGIIFYYYAMGWYRQATGKERELVAAITRSGGSTYYADSVKGRFTISRDNAKNTVYLQMNSLKPEDTAVYYCAAARLPYYVGRYYYWGQGTQVTVSS” the “polyreactivity (PSR sort gate)” value was “high polyreactivity”. For “QVQLVESGGGLVQAGGSLRLSCAASGIIIDSNAMGWYRQAPGKERELVAAITSGGSTKYADSVKGRFTISRDNAKNTVYLQMNSLKPEDTAVYYCNADFRPADQWSYFYEMDSWGQGTQVTVSS”, the “polyreactivity (PSR sort gate)” value was “low polyreactivity”. For “QVQLVESGGGLVQAGGSLRLSCAASGIIIDYNAMGWYRQAHGKERELVAAISSRGGSTYYADSVKGRFTISRDNAKNTVYLQMNSLKPEDTAVYYCAKVIGKYVNSYYWGQGTQVTVSS”, the “polyreactivity (PSR sort gate)” value was “low polyreactivity”. For “QVQLVESGGGLVQAGGSLRLSCAASGIIIKRNAMGWYRQAPGKEMELVAAISRSGGSTYYSDSVKGRFTISRDIAMNTVYLQMNSLKAEDTAVYYCAADWSEYPYDYWGQGTQVTVSS”, the “polyreactivity (PSR sort gate)” value was “low polyreactivity”. For “QVQLVESGGGLVQAGGSLRLSCAASGIIIPVYAMGWYRQAPGKERELVAAISSGGSTYYADSVKGRFTISRDNAKNTVYLQMNSLKPEDTAVFYCAAGYQKGYADPGFDYWGQGTQVTVSS”, the “polyreactivity (PSR sort gate)” value was “high polyreactivity”. In the case of “QVQLVESGGGLVQAGGSLRLSCAASGIIIQINAMGWYRPAPGKERELVAAITIDGTTNYADSVKGRFTISRDNAKNTVYLQMNILKPEDTAVYYCARRRSVYVWEPYQYDYWGQGTQVTVSS”, the “polyreactivity (PSR sort gate)” value is reported as “low polyreactivity”. For “QVQLVESGGGLVQAGGSLRLSCAASGIIIYRYVMGWYRPAPGKERELVASISSSGGRTHYADSVKGRFTISRDNAKNTVYLQMNSLKPEDTAVYYCAAVQRSSFYRRYDYWGQGTQVTVSS”, the “polyreactivity (PSR sort gate)” value was “high polyreactivity”. For “QVQLVESGGGLVQAGGSLRLSCAASGIILGSNAKGWYRQAPGKERELVAGITSGGGTYYADSVKGRFTISRDNAKKTVYLQMNSLKPEDTAVYYCAKLYFHYYRYGYWGQGTQVTVSS”, the “polyreactivity (PSR sort gate)” value was “low polyreactivity”. For “QVQLVESGGGLVQAGGSLRLSCAASGIILHYYAMGWYRQAPGKQRELVAAISARGGRTYYADSVKGRFTISRDNAKNTVYLQMNSLKPEDTAVYYCAAVTVASPTRMDYWGQGTLVTVSS”, the “polyreactivity (PSR sort gate)” value was “high polyreactivity”. For “QVQLVESGGGLVQAGGSLRLSCAASGIILIQNSMGWSRHAPGKERELVAAISTRGGRTYYADSVKGRFTISRDNAKNTVYLQMNSLKPEDTAVYYCAAYRTTPYRDYKMDYWGQGTQVTVSS”, the “polyreactivity (PSR sort gate)” value was “high polyreactivity”. For “QVQLVESGGGLVQAGGSLRLSCAASGIILPYYAMGWYRQAPGKERELGASISYDGTSTYYADSVKGRFTISRDNAKNTVYLQMNSLKPEDTAVYYCAAVQWWPRASYSMDYWGQGTQVTASS”, the “polyreactivity (PSR sort gate)” value was “low polyreactivity”. In the case of “QVQLVESGGGLVQAGGSLRLSCAASGIILRRYAMGWYRQPPGKERELVAAISSRGGSTYYADSVKGRFTISRDNAKNTVYLQMNSLKPEDTAVYYCAAEDYWYDFDYWGQGTQVTVSS”, the “polyreactivity (PSR sort gate)” value is reported as “high polyreactivity”. In the case of “QVQLVESGGGLVQAGGSLRLSCAASGIILRYYVMGWYRQAPGKERELVAAITSRGGSTYYADSVKGRFTISRDNAKITVYLQMNSLKPEDTAVYYCAAGYRNVNTFDYWGQGTQVTVSS”, the “polyreactivity (PSR sort gate)” value is reported as “high polyreactivity”. With “QVQLVESGGGLVQAGGSLRLSCAASGIILSPYTMGWYIQAPGKERELVAGISRSGGTTYYADSVKGRFTISRDNAKNTVYLQMNSLKPEDTAVYYCAAGLIYGYSGYDSWGQGTQVTVSS” the “polyreactivity (PSR sort gate)” value was “low polyreactivity”. With “QVQLVESGGGLVQAGGSLRLSCAASGIIMPSYVMGWYRQAPGKERELVAAITRSGGNTYYADSVKGRFTISRDNAKNTVYLQMNSLKPEDTAVYYCAARAPVRRYRAYEFDYWGQGTQVTVSS” the “polyreactivity (PSR sort gate)” value was “high polyreactivity”. In the case of “QVQLVESGGGLVQAGGSLRLSCAASGIIQVYNTMGWYRQAPGKERELVAAINYSGGSTNYADSVKGRFTISRDNAKNTVYFQMNSLKPEDTAVYYCNARYGGFNVPYLRYEHWGQGTQVTVSS”, the “polyreactivity (PSR sort gate)” value is reported as “low polyreactivity”. With “QVQLVESGGGLVQAGGSLRLSCAASGIISGDYAMGWYRQAPGKERELVARITSGDSTNYADSVKGRFTISRDNAKNTVYLQMNSLKPEDTAVYYCAADRVWAYWTYGYWGQGTQVTVSS” the “polyreactivity (PSR sort gate)” value was “low polyreactivity”. In the case of “QVQLVESGGGLVQAGGSLRLSCAASGIIYGNVMGWYRQAPGKESELVAAITGSGGSTYYADSVKGRFTISRDNAKNTVYLQMNSLKPEDTAVYYCAADLALYNTLYLTLPDYYWGEGTQVTVSS”, the “polyreactivity (PSR sort gate)” value is reported as “low polyreactivity”. For “QVQLVESGGGLVQAGGSLRLSCAASGIIYYGYAMGWYRQAPGKERELVAAISRSGGSTYYADSVKGRFTISRDNAKNTVYLQMNSLKPEDTAVYYCAASGVTYDYWGQGTQVTVSS”, the “polyreactivity (PSR sort gate)” value was “high polyreactivity”. In the case of “QVQLVESGGGLVQAGGSLRLSCAASGIIYYGYVMGWYRQAPGKERELVATITSSGGSKYYADSVKGRFTISRDNAKNTVYLQMNSLKPEDTAVYYCAADYYYGAWVRHDYWGQCTQVTVSS”, the “polyreactivity (PSR sort gate)” value is reported as “low polyreactivity”. In the case of “QVQLVESGGGLVQAGGSLRLSCAASGILLFNAMGWYRQAHGKERELVAAINSGGSTNYADSVKGRFPISRDNAKNTGYLQMNSLKPEDTAVYYCAKDTPFTLRVWAEGGMDYWGQGTQVTVSS”, the “polyreactivity (PSR sort gate)” value is reported as “low polyreactivity”. With “QVQLVESGGGLVQAGGSLRLSCAASGIMFSSYAMLWYRQAPGKERELFAAISWSGGSTYYADSVKLRFTISRDNAKNTVYLQMNSLKPEDTAVYYCAAKSHWYKRGYWGQGTQVTVSS” the “polyreactivity (PSR sort gate)” value was “low polyreactivity”. For “QVQLVESGGGLVQAGGSLRLSCAASGINFESYVMGWYRQAPGKERELVARISYSGGSTYYADSVKGRFTISRDNAKNTVYLQMNSLIPEDTAVYYCNARYLFSGRYSRRMEYWGQGTQVTVSS”, the “polyreactivity (PSR sort gate)” value was “high polyreactivity”. In the case of “QVQLVESGGGLVQAGGSLRLSCAASGINFFVYDMGWYRQAPGKERELVAAITWSGDSTYYADSVKGRFTISRDNAKNTVYLQINSLKPVDSAVYYCAAQFDVYYSRQPYDYNRSGYWGQGTQVTVSS”, the “polyreactivity (PSR sort gate)” value is reported as “low polyreactivity”. With “QVQLVESGGGLVQAGGSLRLSCAASGINFGQNAMGWYRQAPGKERELVAAITISVGSTYYADSVKGRFTISRDNAKNTVYLQMNSLKPEDTAVYYCAARRVTWKVIARGYRYGYWGQGTQVTVTS” the “polyreactivity (PSR sort gate)” value was “low polyreactivity”. For “QVQLVESGGGLVQAGGSLRLSCAASGINFGYYTMGWYRQAPGKDREFVAAITANGGRTYYADSVKGRFTLSRDNAKNTVYLKMNSLKPEDTAVYYCNARTYTYRGSFDYWVQGTQVTVSS”, the “polyreactivity (PSR sort gate)” value was “high polyreactivity”. For “QVQLVESGGGLVQAGGSLRLSCAASGINFNYYVMGWYRQAPGKERELVAAISRSGGRTRYADSVKGRFTISRDNAKNTVYLQMNSLKPEDTAVYYCAAVGSVNYDADFDYWGQGTQVTVSS”, the “polyreactivity (PSR sort gate)” value was “high polyreactivity”. For “QVQLVESGGGLVQAGGSLRLSCAASGINFRGYAMGWYRQAPGKERELVASITNTDSTYYADSVKGRFTISRDNAKNTVYLQMNSLKPEDTAVYYCAARRGRKYGYWGQGTQVTVSS”, the “polyreactivity (PSR sort gate)” value was “high polyreactivity”. With “QVQLVESGGGLVQAGGSLRLSCAASGINFTSYAMGWYRQAPGKERELVAAISSSGVRTYYADSVKGRFTISRDNAKNTVYLQMNSQKPEDTAVYYCATRRRVLYGYDYWGQGTQVTVSS” the “polyreactivity (PSR sort gate)” value was “high polyreactivity”. For “QVQLVESGGGLVQAGGSLRLSCAASGINISWYAMGLYRQAPGKERELVAAISRRGGRTYYADSVKGRFTSSRDNAKNTVYLEMKSMLPEDTAVYYCAVVERQVPGPADGSVQVYYYWGQGTQVTGSS”, the “polyreactivity (PSR sort gate)” value was “high polyreactivity”. With “QVQLVESGGGLVQAGGSLRLSCAASGIPFYVKDMGWYRQAPGKDWDCVAAISYRGGSTYYADSVKGRFTISRDNAKNTVYLQMNSLKPEDTAVYYCAADYNYWSPHRDDYWGQGTQVTVSS” the “polyreactivity (PSR sort gate)” value was “low polyreactivity”. In the case of “QVQLVESGGGLVQAGGSLRLSCAASGISFERNGMGWYRQATGKERELVAAIRSGGSTYYADSVKGRFTISRDNAKNRVYVQMHSLKPEETAVYYCAAVTQGGYTDLGDYWGQGTQVTVSS”, the “polyreactivity (PSR sort gate)” value is reported as “low polyreactivity”. In the case of “QVQLVESGGGLVQAGGSLRLSCAASGISFGVYSLGWYRQAPGKERELVAAISSSGTSTYYADSVKGRFTISRDNAKNTVYLQMNSLKPEDTAVYYCAADYKRNQEVDYWGQGTQVTVSS”, the “polyreactivity (PSR sort gate)” value is reported as “high polyreactivity”. In the case of “QVQLVESGGGLVQAGGSLRLSCAASGITFAAYAMGWYRQAPGKERELVAAISTSGDSTYYADSVKGRFTISRDNAKNTVYLQMNSLKPEDTAVYYCAARAVRLSSSKVDYWGQGTQVTVSS”, the “polyreactivity (PSR sort gate)” value is reported as “high polyreactivity”. With “QVQLVESGGGLVQAGGSLRLSCAASGITFAHYAMGWYRQAPGKERELVAVITSGGSTYYADSVKGRFTISRDNAKNTVYLQMNSLKPEDTAVYYCNRVPRRSIRYDYWGQGTQVTVSS” the “polyreactivity (PSR sort gate)” value was “high polyreactivity”. For “QVQLVESGGGLVQAGGSLRLSCAASGITFAKYAMGWYRQAPGKESELVAAISSSGGRTYYADSVKGRFTISRDNAKNTVYLQMNSLKPEDTAVYYCAADFSGPFDYWGLGTQVTVSS”, the “polyreactivity (PSR sort gate)” value was “high polyreactivity”.
